Experimental data: the DeepSol protein solubility set

assay: soluble on expression in E. coli; label from the status in PepcDB or PDB records

Row | Sequence | soluble on expression in E. coli
1 | MYVTIVYASVKTDKTEAFKEATRMNHEQSIREPGNMRFDILQSADDPTRFVLYEAYKTRKDAAAHKETAHYLTWRDTVADWMAEPRKGVIYGGLYPTGDD | soluble
2 | MYWLFKSEPFKWSWEMQKARGEKGEQWDGVRNYQARNNMRAMKLGDKGFFYHSNEGLEVVGIVEVCALAHPDSTTDDPRWECVDIKAVRDMPKPVTLKDVKANPRLQDMSLVTSMRLSVQPVTEDEWIEVCRMGGLDANDILEHHHHHH | soluble
3 | MYYLELALGTQEMEAIVGKVTEVNKDTFWPIVKAAGDKPVVLDMFTQWCGPCKAMAPKYEKLAEEYLDVIFLKLDCNQENKTLAKELGIRVVPTFKILKENSVVGEVTGAKYDKLLEAIQAARS | soluble
4 | NAKVKRIRLGNLKKTVKLYDLIDEFHSTTLENLKNGLRTGRGYCIEINKQVVSMAKSTSENRTHAMIIGVGTHPKYRAKGLATKCLIKLCSELLRENKIPCLFYDNEEAGKIYKKLGFENIGKWGIYSK | not soluble
5 | NAQARFSQNLLDQGSHPTSEKLLSVLRPASGHVADALGITEGENVIHLRTLRRVNGVALCLIDHYFADLTLWPTLQRFDSGSLHDFLREQTGIALRRSQTRISARRAQAKECQRLEIPNMSPLLCVRTLNHRDGESSPAEYSVSLTRADMIEFTMEH | soluble
6 | NATTLPEALKLMQYIGDAIGTIRDPQELFRTVTDKLRLLFAFDSAVIITIDRERREASVFFEMLRFELPEQLRHQTRSIAGTWLEGHLDDRTVTVASIARDIPSFGADGAPLLWTLHELGMRQIVLSPLRSGGRVIGFLSFVSAEEKLWSDGDKSLLSGVSSSIAIAVSNALAYEELRQREAETSMQLAINNALFTI | soluble
7 | NDPEWFAIVKWTLFAMLNAEEAKITSKNVEAEAKATKNPDVARMLGADGTYGKDLNLPKDWVVQIVKQVGNYGEVFERNLGEGTPLKIKRGQNALWNAGGIQYAPPIR | not soluble
8 | NEHLGGIYDYLRTRRMQTLTELERTTTIETKTTREAIPETEAKADYRRQKEVAKQLRTLERTVATCEERIGKLESELQAIEMLLQDPKHATDANLFERYAGMKQELEKAMEDWEQASEALSEAQG | not soluble
9 | NEKITKKDALELFSLPIHAVGRIADEIRKVKCGDLVTFVNDTNINYTNICLSKCRFCAFYAREKGYVLSHEEILRKVGYAVKMGATQIMLQGGMNPDLGLEWFEELFRKIKARFSSVHIHSLSPPEIVFLAKLERSSIREVLDRLKAAGLDSLPGGGAEILVDSVRRKISPNKCSSDEWLRVMETAHSLNMPTTATMMFGHVESDGDIVEHLIKIRELQEKTGGFTAFIPWTFQPGNTELYAEIKRPVSPLRYLQVLAISRIVLNNFRNIQASWLTQGFEIATLSLFFGANDFGGTMLEENVVRATGKDFRPAKIEEIVKAVKAVGRPVALR | soluble
10 | NEPVAVIGVGCRFPGDIDGPERLWDFLTEKKCAITAYPDRGFTNAGTFAESGGFLKDVAGFDNRFFDIPPDEALRMDPQQRLLLEVSWEALEHAGIIPESLRLSRTGVFVGVSSTDYVRLVSASAQQKSTIWDNTGGSSSIIANRISYFLDIQGPSIVIDTACSSSLVAVHLACRSLSTWDCDIALVGGTNVLISPEPWGGFREAGILSQTGCCHAFDKSADGMVRGEGCGVIVLQRLSDARLEGRRILAILTGSAVNQDGKSNGIMAPNPSAQIGVLENACKSARVDPLEIGYVEAHGTGTSLGDRIEAHALGMVFGRKRPGSGPLMIGSIKPNIGHLEGAAGIAGLIKAVLMVERGSLLPSGGFTEPNPAIPFTELGLRVVDELQEWPVVAGRPRRAGVSSFGFGGTNAHVIVEEA | soluble
11 | NFMLNQPHSVSESPGKTVTISCTRSSGNIDSNYVQWYQQRPGSAPITVIYEDNQRPSGVPDRFAGSIDRSSNSASLTISGLKTEDEADYYCQSYDARNVVFGGGTRLTVLG | soluble
12 | NGGVGVDVELITSINVENDTFIERNFTPQEIEYCSAQPSVQSSFAGTWSAKEAVFKSLGVKSLGGGAALKDIEIVRTNKNAPAVELHGNAKKAAEEAGVTDVKVSISHDDLQAVAVAVSTKK | soluble
13 | NGMDEEQRQKRRRIEVALIEYRETLEEQGMKNPEEIERKVEINRKRLEVDYGLS | soluble
14 | NKDMSFTVRGNYTFSQNIIDYYEENKLPYDYLSVTGKPFNILRGYIAEGLFSSKEEINTSADQSGFGRIRPGDIKYRDVNGDGIINDDDKVPLSYSNQLPRVMYGFGADFHWKDLTLSFLFKGSAKVDYYRSGLGNDAGWIPFYNGELGNVIKLANNPKNRWTPAWYSGTTATENPHAEFPRLSYGGNTNNSQLSSFWKRNGSFLRFQELSLKYNLKTPWIKKTGLSSVDLEFVANNLFTIDKVKYFDPEQASANGAAYPIPATYTFQVYLKF | not soluble
15 | NKDWNVYASANFNYNRQEITKLFFGLNKYMLPNTGTIWEIGYPNSFYMAEYAGIDKKTGKQLWYVPGQVDADGNKVTTSQYSADLETRIDKSVTPPITGGFSLGASWKGLSLDADFAYIVGKWMINNDRYFTENGGGLMQLNKDKMLLNAWTEDNKETDVPKLGQSPQFDTHLLENASFLRLKNLKLTYVLPNSLFAGQNVIGGARVYLMARNLLTVTKYKGFDPEAGGNVGKNQYPNSKQYVAGIQLSF | not soluble
16 | NPHLLVKYHSGFFVDGKFLCCQQSCKAAPGCTLWEAY | soluble
17 | NQNQTQHKQRPQATAEQIRLAQMISDHNDADFEEKVKQLIDITGKNQDECVIALHDCNGDVNRAINVLLEGNPDTHSWEMVGKKKGVSGQK | soluble

Row | Sequence | soluble on expression in E. coli
18 | NTATVITVGNYKGGAGKTTNVVLLAYKLAKKGLKVCVLDLDPQSNATKSLLLTKSSLYQDEVVTIEKTLMTGISEKNLDGLEVKIMDNLYLLPSYIDFEDFPKYLYKNTSNQREEDYYLKNIFTPLQGKYDIVLIDVPPMSKAVTRNAVICSDYVLISLQTHERSLSGAESYVEELNKLHNEYDLDLEVVGVLPVIHKNNGSVDQYVMEVAKETFGEDNLFENVVPQMERIKRFDVNGITDKDRHDQKVLNLYDKVSDELLDRINYFEEEKEGAIN | not soluble
19 | NTIEKEERIKIAVLTEQNQKNRIADYQDREEIYERQRRKMHDYKNQLSTIQTLIKNGHTDEALSFTQKLTESIAVEMSAINTNHPVVNAILNQKYRSMQEKHIAVILKVGDLQEICLEEEEIVILLSNLLDNAIRESEKVLKNTGKAVIHLKLECEDHKLIFAVRNPVTEKVEIENDTIKSKRGDHHGIGLLNVKAVVDKYGGDMVLSCDENEFKAVVIL | not soluble
20 | NTKQLRFEDVVNQSSPKNCTVYCGGIASGLTDQLMRQTFSPFGQIMEIRVFPEKGYSFVRFSTHESAAHAIVSVNGTTIEGHVVKCYWGKESPDMT | soluble
21 | NTQLNIKMQPDTQTLDEVVVIGYGTVKKRDLTGAVASVKSEDIVRMPTSNVLEAIQGQVAGLDITRSSGEAGSGVNMTLRGTRSINGDNSPLFIIDGMEGSYDELNPNDIASIEVLKDASSTAVYGAAGANGVIIITTKTPKKDK | not soluble
22 | NYNIYDHPKAAEDRKNTVLYLMHYHKRITDKQWEDAKKIDLKANLVNRTPEERQNIDTNQDSEYNSYVNFVKSELMNNKAFKDENLGNVLQSG | not soluble
23 | PAGPFTRALWEASGDIIAGINSSDFITMLGDGTLRRPEFDFYIDQDAQYLAQYSRALARLSSIAPDSHAQIEWAQSAAECLVVEAELHRSYMAGKEVSAPSHITMAYTDFLIARTYTEDYVCGVAAVLPCYWLYAEIGLMLAEQNHDEHPYKDWLNTYSGEEFIAGTRAAIARLEKALENAGAEQRVDAARAFLSASVHEREFFDQATRHG | not soluble
24 | PARPFRVSNHDRSSRRGVMASSLQELISKTLDALVIATGLVTLVLEEDGTVVDTEEFFQTLGDNTHFMILEKGQKWMP | soluble
25 | PATCPIVPGQEMIIEISKGRSGLGLSIVGGKDTPLNAIVIHEVYEEGAAARDGRLWAGDQILEVNGVDLRNSSHEEAITALRQTPQKVRLVVYRDEAHYRDEE | soluble
26 | PDAARKAQILWCQPDRAKAWTDWMRKGKFPVGGSICDNPVAETTSLGEQFGFNGTPTLVFPNGRSQSGYSPMPQLEEIIRKNQ | not soluble
27 | PGWEIIHENGRPLYYNAEQKTKLHYPP | soluble
28 | PMEQVVRIHASSGTTGKPTVVGYTQNDIDNWANIVARSLRAAGGSAKDKIHVAYGYGLFTGGLGAHYGAERLGATVIPMSGGQTEKQAQLIRDFQPDMIMVTPSYCLNLIEELERQMGGDARGCSLRVGVFGAEPWTLAMRAEIERRLGITALDIYGLSEVMGPGVAMECLETVDGPTI | not soluble
29 | PNVVKMNKPFISLCPEITRAHALTLMDWLEDEHVTRHLSDSRHVSRFIEQVIDRVQLPVLTHLFNQGGRFFMAYDRHDVPVGFVRLVKTGSDCEIVLVIGNRDNWGRKLGASAIREGMKLAFFEMRAARLIAKVHPDNERSLNAFLRCGFVLESETP | not soluble
30 | PPLYVPEQLVVHKETHQAHVMIGSRGYNAYDDKRTALYLLNNILGGPGMNSRLNVSLRERRGLVYTVESNLTSYTDTGAFCIYFGTDPEDVDTCLKLTYKELKRMRDVKMTSSQLMAAKKQLIGQIGVASDNNENNALGMAKTFLHYNKYESSESVFRRIEALTAEGLLEVANEMFAEEYLSTLIYR | not soluble
31 | PRGSHMAEYLRLPHSLAMIRLCNPPVNAVSPTVIREVRNGLQKAGSDHTVKAIVICGANGNFCAGADIHGFSAFTPGLALGSLVDEIQRYQKPVLAAIQGVALGGGLELALGCHYRIANAKARVGLPEVTLGILPGARGTQLLPRVVGVPVALDLITSGKYLSADEALRLGILDAVVKSDPVEEAIKFAQKIIDKPIEPRRIFNKPVPSLPNMDSVFAEAIAKVRKQYPGVLAPETCVRSIQASVKHPYEVGIKEEEKLFMYLRASGQAKALQYAFFAEKSANKWSTPSGASWKTASAQPVSSVGVLGLGTMGRGIAISFARVGISVVAVESDPKQLDAAKKIITFTLEKEASRAHQNGQASAKPKLRFSSSTKELSTVDLVVEAVFEDMNLKKKVFAELSALCKPGAFLCTNTSALNVDDIASSTDRPQLVIGTHFFSPAHVMRLLEVIPSRYSSPTTIATVMSLSKKIGKIGVVVGNCYGFVGNRMLAPYYNQGFFLLEEGSKPEDVDGVLEEFGFKMGPFRVSDLAGLDVGWKIRKGQGLTGPSLPPGTPVRKRGNSRYSPLGDMLCEAGRFGQKTGKGWYQYDKPLGRIHKPDPWLSTFLSQYREVHHIEQRTISKEEILERCLYSLINEAFRILEEGMAARPEHIDVIYLHGYGWPRHKGGPMFYAASVGLPTVLEKLQKYYRQNPDIPQLEPSDYLRRLVAQGSPPLKEWQSLAGPHGSKL | soluble
32 | PSLSDEISPQGDGSFLIEGSTNIRDINKGLKWDLPTDGPRTLNGLILEHLEDIPESHLSVRVAGHPMEIVEIEENRIKLVRVYPKK | not soluble
33 | PSTAAWFNAREQAKLVDLYDSKIENATPLSAEQLLELAHRYNDRLTVGAALDPWANVPRGAGKEDGDGMAYKDQLRVDRTDVMARIRIPSIKVDLPIYHGTSDNTLKKGAGHLEGTSLPVGGPRTHSVITAHRGLAEATMFTNLNKVGVGDRFTIEVMGEVLTYEVRETRVVSPEDTRFLQTQDDRDLVTLVTCTPLGINTHRILVTAERITPTPQSDIDAARQASQIGFP | not soluble
